Reference: patent US20230134571A1 (INTERNATIONAL AIDS VACCINE INITIATIVE, published 2023)
Positions count from the first letter of the chain named.

B1: PGDM1400 (antibody, V domains shown)
VH: QVHLTQSGPEVRKPGTSVKVSCKAPGNTLKTYDLHWVRSVPGQGLQWMGWISHEGDKKVIVERFKAKVTIDWDRSTNTAYLQLSGLTSGDTAVYYCAKGSKHRLRDYALYDDDGALNWAVDVDYLSNLEFWGQGTAVTVSS
VL: DFVLTQSPHSLSVTPGESASISCKSSHSLIHGDRNNYLAWYVQKPGRSPQLLIYLASSRASGVPDRFSGSGSDKDFTLKISRVETEDVGTYYCMQGRESPWTFGQGTKVDIK
B2: ePGDM9 (antibody, V domains shown)
VH: B1 VH with V2A, H3Q, T5V, A24N, K30T, S39Q, G89E, D112E, S126A
VL: B1 VL with F2I, H9L, H27Q, Y54D, S58E, D73R
B3: ePGDM9 (antibody, V domains shown)
VH: B1 VH with V2A, H3Q, T5V, A24N, K30T, S39Q, G89E, D112E, S126A
VL: B1 VL with F2I, H9L, H27Q, Y54D, S58E, D73R

target: HIV Env of isolate CNE8 (clade AE) (HIV); assay: cell-based or functional assay

Binder | IC50 (µg/ml) with constrains [µg/mL] | IC80 (µg/ml) with constrains [µg/mL]
B1 | 0.001 | 0.003
B2 | 0.001 | 0.002

target: HIV Env of isolate TRO.11 (clade B) (HIV); assay: cell-based or functional assay

Binder | IC50 (µg/ml) with constrains [µg/mL]
B1 | 0.206
B2 | 0.163

target: HIV Env, isolate HIV-001428-2.42 (HIV); assay: cell-based or functional assay

Binder | IC80 (µg/ml) with constrains [µg/mL]
B3 | 0.008

target: HIV Env of isolate R1166.c01 (clade AE) (HIV); assay: cell-based or functional assay

Binder | IC50 (µg/ml) with constrains [µg/mL] | IC80 (µg/ml) with constrains [µg/mL]
B1 | 1.48 | 5.92
B2 | 0.215 | 0.86

target: HIV Env of isolate 1006_11_C3_1601 (clade B) (HIV); assay: cell-based or functional assay

Binder | IC50 (µg/ml) with constrains [µg/mL]
B1 | 1.86
B2 | 0.588

target: HIV Env, isolate X1254_C3 (HIV); assay: cell-based or functional assay

Binder | IC80 (µg/ml) with constrains [µg/mL]
B3 | 0.71

target: HIV Env of isolate 231965.c01 (clade D) (HIV); assay: cell-based or functional assay

Binder | IC50 (µg/ml) with constrains [µg/mL]
B1 | 0.061
B2 | 0.009

target: HIV Env of isolate 0260.v5.c36 (clade A) (HIV); assay: cell-based or functional assay

Binder | IC50 (µg/ml) with constrains [µg/mL] | IC80 (µg/ml) with constrains [µg/mL]
B1 | 0.035 | 0.14
B2 | 0.018 | 0.073

target: HIV Env, isolate T263-8 (HIV); assay: cell-based or functional assay

Binder | IC80 (µg/ml) with constrains [µg/mL]
B3 | 0.06

target: HIV Env, isolate 89-F1_2_25 (HIV); assay: cell-based or functional assay

Binder | IC80 (µg/ml) with constrains [µg/mL]
B3 | 0.004

target: HIV Env of isolate C1080.c03 (clade AE) (HIV); assay: cell-based or functional assay

Binder | IC50 (µg/ml) with constrains [µg/mL] | IC80 (µg/ml) with constrains [µg/mL]
B1 | 0.001 | 0.005
B2 | 0.001 | 0.004

target: HIV Env, isolate Ce1172_H1 (HIV); assay: cell-based or functional assay

Binder | IC80 (µg/ml) with constrains [µg/mL]
B3 | 0.108

target: HIV Env of isolate 3103.v3.c10 (clade ACD) (HIV); assay: cell-based or functional assay

Binder | IC50 (µg/ml) with constrains [µg/mL] | IC80 (µg/ml) with constrains [µg/mL]
B1 | 0.223 | 0.892
B2 | 0.073 | 0.29

target: HIV Env of isolate 1056_10_TA11_1826 (clade B) (HIV); assay: cell-based or functional assay

Binder | IC50 (µg/ml) with constrains [µg/mL]
B1 | 3.38
B2 | 0.903

target: HIV Env of isolate 0330.v4.c3 (clade A) (HIV); assay: cell-based or functional assay

Binder | IC50 (µg/ml) with constrains [µg/mL] | IC80 (µg/ml) with constrains [µg/mL]
B1 | 0.004 | 0.016
B2 | 0.003 | 0.01

target: HIV Env of isolate 191955_A11 (clade A) (HIV); assay: cell-based or functional assay

Binder | IC50 (µg/ml) with constrains [µg/mL] | IC80 (µg/ml) with constrains [µg/mL]
B1 | 0.013 | 0.05
B2 | 0.007 | 0.029

target: HIV Env of isolate CNE58 (clade BC) (HIV); assay: cell-based or functional assay

Binder | IC50 (µg/ml) with constrains [µg/mL]
B1 | 0.003
B2 | 0.002

target: HIV Env of isolate CNE21 (clade BC) (HIV); assay: cell-based or functional assay

Binder | IC50 (µg/ml) with constrains [µg/mL]
B1 | 0.003
B2 | 0.002

target: HIV Env, isolate 6480.v4.c25 (HIV); assay: cell-based or functional assay

Binder | IC80 (µg/ml) with constrains [µg/mL]
B3 | > 100

target: HIV Env, isolate CNE21 (HIV); assay: cell-based or functional assay

Binder | IC80 (µg/ml) with constrains [µg/mL]
B3 | 0.007

target: HIV Env of isolate T250-4 a.k.a. CRF250 (clade AG) (HIV); assay: cell-based or functional assay

Binder | IC50 (µg/ml) with constrains [µg/mL] | IC80 (µg/ml) with constrains [µg/mL]
B1 | 0.28 | 1.12
B2 | 0.041 | 0.163

target: HIV Env, isolate 1006_11_C3_1601 (HIV); assay: cell-based or functional assay

Binder | IC80 (µg/ml) with constrains [µg/mL]
B3 | 2.35

target: HIV Env, isolate CAP45.2.00.G3 (HIV); assay: cell-based or functional assay

Binder | IC80 (µg/ml) with constrains [µg/mL]
B3 | 0.005

target: HIV Env, isolate 6811.v7.c18 (HIV); assay: cell-based or functional assay

Binder | IC80 (µg/ml) with constrains [µg/mL]
B3 | > 100

target: HIV Env of isolate Ce704809221_1B3 (clade C) (HIV); assay: cell-based or functional assay

Binder | IC50 (µg/ml) with constrains [µg/mL]
B1 | 0.32
B2 | 0.135

target: HIV Env, isolate 6244_13_B5_4576 (HIV); assay: cell-based or functional assay

Binder | IC80 (µg/ml) with constrains [µg/mL]
B3 | 50.2

target: HIV Env, isolate CNE20 (HIV); assay: cell-based or functional assay

Binder | IC80 (µg/ml) with constrains [µg/mL]
B3 | 0.008

target: HIV Env, isolate RHPA4259.7 (HIV); assay: cell-based or functional assay

Binder | IC80 (µg/ml) with constrains [µg/mL]
B3 | 0.578

target: HIV Env of isolate RHPA4259.7 (clade B) (HIV); assay: cell-based or functional assay

Binder | IC50 (µg/ml) with constrains [µg/mL]
B1 | 0.491
B2 | 0.145

target: HIV Env of isolate ZM53M.PB12 (clade C) (HIV); assay: cell-based or functional assay

Binder | IC50 (µg/ml) with constrains [µg/mL]
B1 | 0.009
B2 | 0.006

target: HIV Env of isolate REJO4541.67 (clade B) (HIV); assay: cell-based or functional assay

Binder | IC50 (µg/ml) with constrains [µg/mL]
B1 | 0.004
B2 | 0.001

target: HIV Env, isolate CNE19 (HIV); assay: cell-based or functional assay

Binder | IC80 (µg/ml) with constrains [µg/mL]
B3 | 0.012

target: HIV Env, isolate X1193_C1 (HIV); assay: cell-based or functional assay

Binder | IC80 (µg/ml) with constrains [µg/mL]
B3 | 0.158

target: HIV Env of isolate CNE30 (clade BC) (HIV); assay: cell-based or functional assay

Binder | IC50 (µg/ml) with constrains [µg/mL]
B1 | > 100
B2 | > 100

target: HIV Env of isolate CNE53 (clade BC) (HIV); assay: cell-based or functional assay

Binder | IC50 (µg/ml) with constrains [µg/mL]
B1 | 0.026
B2 | 0.007

target: HIV Env of isolate Ce1172_H1 (clade C) (HIV); assay: cell-based or functional assay

Binder | IC50 (µg/ml) with constrains [µg/mL]
B1 | 0.218
B2 | 0.027

target: HIV Env of isolate T235-47 (clade AG) (HIV); assay: cell-based or functional assay

Binder | IC50 (µg/ml) with constrains [µg/mL] | IC80 (µg/ml) with constrains [µg/mL]
B1 | 0.011 | 0.044
B2 | 0.004 | 0.017

target: HIV Env of isolate HIV-0013095-2.11 (clade C) (HIV); assay: cell-based or functional assay

Binder | IC50 (µg/ml) with constrains [µg/mL]
B1 | > 100
B2 | > 100

target: HIV Env of isolate BJOX010000.06.2 (clade AE) (HIV); assay: cell-based or functional assay

Binder | IC50 (µg/ml) with constrains [µg/mL] | IC80 (µg/ml) with constrains [µg/mL]
B1 | 0.871 | 3.48
B2 | 0.293 | 1.17

target: HIV Env of isolate HIV-16845-2.22 (clade C) (HIV); assay: cell-based or functional assay

Binder | IC50 (µg/ml) with constrains [µg/mL]
B1 | > 100
B2 | > 100

target: HIV Env, isolate ZM233M.PB6 (HIV); assay: cell-based or functional assay

Binder | IC80 (µg/ml) with constrains [µg/mL]
B3 | 0.007
